The record followed here is PMC3046295 (Journal of autoimmunity, 2011).

Read-outs that look alike come from different tables or passages of the source. Residues, ends and D or L forms follow the SMILES beside them. No end group written: not given here. Some results are limits rather than exact numbers.

One experiment deals with HLA-DR0405 (Homo sapiens, UniProt P01903+P01911, A100R/A169T/D86S/F76Y/I96L/K127E/L162R/M171V/N62H/P40V/Q125Y/R42H/S133A/S149N/S66Y/V115G/V209L/W38E). Kind of experiment: Indirect. It counts as binding. The conditions noted are these: read-out: IC50 (uM) 0405; pH 5.4.
The target in experiment [1] is T1, HLA-DR0403 (Homo sapiens, UniProt P01903+P01911, A100R/A103E/A169T/F76Y/I96L/K127E/L162R/M171V/N62H/P40V/Q125Y/R42H/S133A/S149N/S66Y/V209L/W38E). The experiment can be described thus: Kinetic analysis. The format is binding. The conditions noted are these: pH 5.4, read-out: Kd 0403 (dissociation rate constant).
The target of experiment [2] is T2, HLA-DR0401 (Homo sapiens, UniProt P01903+P01911, A100K/A169T/F76Y/I96L/K127E/L162R/M171V/N62H/P40V/Q125Y/R42H/S133A/S149N/S66Y/V115G/V209L/W38E). The experiment can be described thus: biochemical. It counts as binding.
The target in experiment [3] is T2, HLA-DR0401. Kind of experiment: Kinetic analysis. It counts as binding. The conditions noted are these: pH 5.4, read-out: Kd 0401 (dissociation rate constant).
Experiment [4] concerns the target T1, HLA-DR0403. The experiment can be described thus: biochemical. It counts as binding.
The target in experiment [5] is HLA-DR0403 (DRA1*0101/DRB1*0403), soluble recombinant (human). Kind of experiment: ELISA.
The next experiment has as its target DR0403 (Homo sapiens, UniProt P01903+P01911, A100R/A103E/A169T/F76Y/I96L/K127E/L162R/M171V/N62H/P40V/Q125Y/R42H/S133A/S149N/S66Y/V209L/W38E). Kind of experiment: 16-hour direct binding assay of biotinylated reference peptide, DR0403.
The target of experiment [6] is HLA-DR0401 (DRA1*0101/DRB1*0401), soluble recombinant (human). The experiment can be described thus: ELISA.
In experiment [7] the target is HLA-DR0403 (DRA1*0101/DRB1*0403), soluble recombinant (human). Kind of experiment: ELISA. This is another data set of the same source.

What is called IC50 is the concentration at which inhibition is half-maximal. As usually defined, the EC50 is the midpoint of the concentration-response curve.

For the molecule `CC(C)C[C@H](NC(=O)[C@H](CC(C)C)NC(=O)[C@@H]1CCCN1C(=O)[C@H](CC(=O)O)NC(=O)[C@H](Cc1ccccc1)NC(=O)[C@H](C)NC(=O)CNC(=O)[C@H](Cc1ccc(O)cc1)NC(=O)[C@@H](NC(=O)[C@@H](NC(=O)[C@@H](NC(=O)CNC(=O)[C@H](C)NC(=O)[C@@H](NC(=O)[C@H](C)NC(=O)[C@H](CO)NC(=O)[C@@H](NC(=O)[C@H](CC(C)C)NC(=O)[C@H](Cc1ccccc1)NC(=O)[C@@H]1CCCN1)C(C)C)[C@@H](C)O)[C@@H](C)O)[C@@H](C)O)C(C)C)C(=O)O` [GAD65p42] (H-PFLVSATAGTTVYGAFDPLL-OH), the IC50 on HLA-DR0405 is over 10 µM; against HLA-DR0401 [2], 2070 nM; on HLA-DR0403 [4], 1270 nM. Besides, the koff on HLA-DR0403 [1] is 2.02e-05 s⁻¹; on HLA-DR0401 [3] it was 5.42e-05 s⁻¹.
For `CC[C@H](C)[C@H](NC(=O)[C@@H](NC(=O)[C@@H]1CCCN1C(=O)[C@H](C)NC(=O)[C@@H](N)C(C)C)C(C)C)C(=O)N[C@@H](CCCCN)C(=O)N[C@@H](C)C(=O)N[C@@H](CCCNC(=N)N)C(=O)N[C@@H](CCSC)C(=O)N[C@@H](CCSC)C(=O)N[C@@H](CCC(=O)O)C(=O)N[C@@H](Cc1ccc(O)cc1)C(=O)NCC(=O)N[C@H](C(=O)N[C@H](C(=O)N[C@@H](CCSC)C(=O)N[C@H](C(=O)N[C@@H](CO)C(=O)N[C@@H](Cc1ccc(O)cc1)C(=O)N[C@@H](CCC(N)=O)C(=O)O)C(C)C)[C@@H](C)O)[C@@H](C)O` [GAD65p67] (H-VAPVIKARMMEYGTTMVSYQ-OH) the same measures were over 10 µM, 640 nM, 1610 nM, 7.67e-05 s⁻¹ and 0.000149 s⁻¹.
In the case of “biotinylated influenza hemagglutinin derived peptide HA306”, the EC50 in experiment [5] is over 15000 nM.
Consider NFIRMVISNPAAT [557I], for which the “ED50 to bind 0.05 µM DR0403” value at DR0403 worked out at 10 nM.
As for GAGSLQPLALEGSLQKRGIV [preproinsulin p10], the IC50 in experiment [6] was determined as 8750 nM.
For CACDQKPCSCSKVDVNYAFL [GAD65p10], the 50% inhibitory concentration (IC50) in [7] came to 3550 nM.
Take YDLSYDTGDKALQCGRHVDV [GAD65p55]: in experiment [6], the IC50 came out at 10000 nM.
Consider YAIKTGHPRYFNQLSTGLDM [GAD65p22], for which, in experiment [7], the IC50 was found to be 10000 nM.
For the molecule RGIVEQCCTSICSLYQLENY [preproinsulin p12], the values for the IC50 in [6] and in experiment [7] were 220 nM and 1890 nM, respectively.
For VAPVIKARMMEYGTTMVSYQ (not fully specified) [biotinylated GAD65p67], the koff in [6] stood at 0.000149 s⁻¹; in [7], 7.67e-05 s⁻¹. Further, the t1/2 in experiment [6] was found to be 77.4 min; in [7], 151 min.
In the case of TSICSLYQLENYCN [preproinsulin p13], in [7], the IC50 amounted to 470 nM.
As for NFIRMVISNPAAT (not fully specified) [biotinylated GAD65-557I], in experiment [7], the EC50 is 10 nM.
Consider CFWYIPPSLRTLEDNEERMS [GAD65p64], for which the IC50 in experiment [7] was found to be 1000 nM.
Turning to YAMMIARFKMFPEVKEKGMA [GAD65p32], the IC50 in experiment [7] came to 10000 nM.
In the case of PFLVSATAGTTVYGAFDPLL (not fully specified) [biotinylated GAD65p42], in experiment [6], the koff was determined as 5.42e-05 s⁻¹ and the t1/2 turned out to be 3.6 min. Moreover, in experiment [7], the koff was found to be 2.02e-05 s⁻¹ and the t1/2 was determined as 9.6 min.
